Assay results taken from patent publication US11780907B2, “Human antibodies to influenza hemagglutinin” (Regeneron Pharmaceuticals, Inc., priority 2018, dated 2023).
Like-named read-outs stand apart in the source and are kept apart here.

Experiments:
[1] = tested on: A/Wisconsin/67/2005 (H3N2)-overexpressing 3T3 cells; conditions: read-out: EC50 ADCC with human donor PBMCs
[2] = tested on: A/Wisconsin/67/2005 (H3N2)-overexpressing 3T3 cells; conditions: read-out: EC50 FcγRIIIA activation (ADCC-Glo reporter bioassay)

B1: H1H14612N2: fully human anti-influenza A group 2 HA monoclonal antibody, HCVR/LCVR SEQ ID NOs: 18/26 (antibody, V domains shown)
VH: EVQLVESGGGLVKPGGSLRLSCAASGFSFSGFSMNWVRQAPGKGLEWVSSISTSGNYMYYADSVKGRFTISRDNAKKSFSLQMNSLRAEDSAIYYCARGGGYNWNLFDYWGQGSLVTVSS
VL: EIVLTQSPGTLSLSPGERATLSCRASQSLNSNYLAWYQQKPGQAPRLLIYGASSRATGIPDRFSGSGSGADFTLTISRLESEDFAVYYCQQYGNSPLTFGGGTKVEIK
EC50 [1]: 0.176 nM | EC50 [2]: 0.688 nM
